Laboratory results: patent CN114028561A (JIANGSU QYUNS BIOMEDICAL CO LTD, dated 2022)

B1: QX008N(HZD8G2-57) (antibody, human IgG1, kappa, V domains shown)
VH: EVQLVESGGGLVQPGGSLRLSCAASGFSLSSYYMSWVRQAPGKGLEWVGFISYGGSAYHATWAQGRFTISKDNSKNTLYLQMNSLRAEDTAVYYCAREFRSMTYGAEWGIWGQGTLVTVSS
VL: AYQMTQSPSSVSASVGDRVTITCQASESIYDTLAWYQQKPGKAPKLLIYSASSLASGVPSRFSGSGSGTDFTLTISSLQPEDFATYYCQQGYTMPDVDKNPFGGGTKVEIKR
notes: also called 抗人TSLP单克隆抗体
B2: Tezepelumab (antibody, V domains shown)
VH: QMQLVESGGGVVQPGRSLRLSCAASGFTFRTYGMHWVRQAPGKGLEWVAVIWYDGSNKHYADSVKGRFTITRDNSKNTLNLQMNSLRAEDTAVYYCARAPQWELVHEAFDIWGQGTMVTVSS
VL: SYVLTQPPSVSVAPGQTARITCGGNNLGSKSVHWYQQKPGQAPVLVVYDDSDRPSWIPERFSGSNSGNTATLTISRGEAGDEADYYCQVWDSSSDHVVFGGGTKLTVLG

Assays:
天然TSLP = assay: cell-based or functional assay
食蟹猴TSLP = 食蟹猴TSLP (食蟹猴 (cynomolgus monkey), UniProt A0A7N9CAT7 29-159); assay: cell-based or functional assay
食蟹猴TSLP, sequence (A0A7N9CAT7 entry or part of it): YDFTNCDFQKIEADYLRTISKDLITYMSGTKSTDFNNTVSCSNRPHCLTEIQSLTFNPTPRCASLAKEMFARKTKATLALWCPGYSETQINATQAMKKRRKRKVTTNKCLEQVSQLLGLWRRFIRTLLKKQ

[1] = target: T1, 人胸腺基质淋巴细胞生成素(Human Thymic Stromal Lymphopoietin, TSLP) (human, UniProt Q969D9 29-159); assay: cell-based or functional assay
[2] = target: T1, 人胸腺基质淋巴细胞生成素(Human Thymic Stromal …); assay: SPR (Biacore T200), antibody captured on Protein A chip, human TSLP as analyte, 25℃, 1:1 model, mean of three runs

Binder | IC50 of inhibition of natural TSLP-induced STAT5 phosphorylation in SW756-STAT5-Luciferase reporter cells (天然TSLP) | IC50 of inhibition of cynomolgus TSLP-induced STAT5 phosphorylation in SW756-STAT5-Luciferase reporter cells (食蟹猴TSLP) | IC50 of inhibition of human TSLP-induced STAT5 phosphorylation in SW756-STAT5-Luciferase reporter cells [1] | IC50 of inhibition of human TSLP-induced TARC (CCL17) release from human PBMC [1] | IC50 of inhibition of human TSLP-induced TARC (CCL17) release from human whole blood [1] | Kd [2] | koff [2] | kon [2]
B1 | 0.462 ng/mL | 0.889 ng/mL | 0.837 ng/mL | 77.1 ng/mL | 0.839 ng/mL | 0.0175 nM | 2.99e-05 s⁻¹ | 1.74e+06 M⁻¹ s⁻¹
B2 |  | 1.88 ng/mL |  |  |  |  |  | 
